# According to US20150307589A1 (INSERM INSTITUT NATIONAL DE LA SANTE ET DE LA RECHERCHE …, published 2015):
# Assays:
# [1] = biological target: NRP1 expressed on COS cells (COS-NRP1); assay: cell-based or functional assay
# [2] = biological target: the molecule itself; assay: sucrose density gradient sedimentation of C6 cell lysates, anti-NRP1 western blot
collapsed COS-1 cells expressing NRP1 and Plexin-A1 [1],Molecule,binding result [2]
> 50%,Sema3A (ligand),
,"NRP1 on rat C6 glioma cells (receptor, rat (Rat C6 glioma cells), UniProt Q9QWJ9 22-922, looked up, whole, on cells; It is not tied expressly to the C6 cells; also called neuropilin-1; receptor NRP1 on C6 cells) FRSDKCGGTIKIENPGYLTSPGYPHSYHPSEKCEWLIQAPEPYQRIMINFNPHFDLEDRDCKYDYVEVIDGENEGGRLWGKFCGKIAPSPVVSSGPFLFIKFVSDYETHGAGFSIRYEIFKRGPECSQNYTAPTGVIKSPGFPEKYPNSLECTYIIFAPKMSEIILEFESFDLEQDSNPPGGVFCRYDRLEIWDGFPEVGPHIGRYCGQKTPGRIRSSSGILSMVFYTDSAIAKEGFSANYSVLQSSISEDFKCMEALGMESGEIHSDQITASSQYGTNWSVERSRLNYPENGWTPGEDSYREWIQVDLGLLRFVTAVGTQGAISKETKKKYYVKTYRVDISSNGEDWITLKEGNKAIIFQGNTNPTDVVFGVFPKPLITRFVRIKPASWETGISMRFEVYGCKITDYPCSGMLGMVSGLISDSQITASNQGDRNWMPENIRLVTSRTGWALPPSPHPYINEWLQVDLGDEKIVRGVIIQGGKHRENKVFMRKFKIAYSNNGSDWKMIMDDSKRKAKSFEGNNNYDTPELRAFTPLSTRFIRIYPERATHSGLGLRMELLGCEVEVPTAGPTTPNGNPVDECDDDQANCHSGTGDDFQLTGGTTVLATEKPTIIDSTIQSEFPTYGFNCEFGWGSHKTFCHWEHDSHAQLRWRVLTSKTGPIQDHTGDGNFIYSQADENQKGKVARLVSPVVYSQSSAHCMTFWYHMSGSHVGTLRVKLHYQKPEEYDQLVWMVVGHQGDHWKEGRVLLHKSLKLYQVIFEGEIGKGNLGGIAVDDISINNHIPQEDCAKPTDLDKKNTEIKIDETGSTPGYEEGKGDKNISRKPGNVLKTLDPILITIIAMSALGVLLGAVCGVVLYCACWHNGMSERNLSALENYNFELVDGVKLKKDKLNPQSNYSEA",binds
